This is an account of results in PMC9482650, “Quantitative fragmentomics allow affinity mapping of interactomes” (Nature Communications, 2022).

Common to all, as to test: holdup assay
What all share (set-up): key: below the threshold = too weak to quantify, mostly under pKd 3.1 to 4
What all share (conditions): plain residues with an end cap or a label only (N-terminal biotin on a linker: ado-ado)

Experiment [1] concerns the target T1, APBA1_1, Q02410.
T1 sequence (Q02410 651-752, limits assumed, looked up): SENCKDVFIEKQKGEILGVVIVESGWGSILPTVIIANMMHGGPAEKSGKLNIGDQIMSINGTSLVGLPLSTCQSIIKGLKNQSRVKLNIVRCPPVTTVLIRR

Experiment [2] addresses T2, CARD11, Q9BXL7.
T2 sequence (Q9BXL7 662-765, limits assumed, looked up): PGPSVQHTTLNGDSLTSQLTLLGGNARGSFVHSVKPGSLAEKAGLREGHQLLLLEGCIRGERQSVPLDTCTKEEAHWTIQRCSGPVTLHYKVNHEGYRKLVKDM

Experiment [3] has as its target T3, DFNB31_1, Q9P202.
T3 sequence (Q9P202 135-233, limits assumed, looked up): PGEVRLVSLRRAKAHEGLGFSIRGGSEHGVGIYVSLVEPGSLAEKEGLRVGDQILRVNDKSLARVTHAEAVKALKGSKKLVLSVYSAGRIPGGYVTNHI

For experiment [4], the target named is T4, DFNB31_2, Q9P202.
T4 sequence (Q9P202 274-371, limits assumed, looked up): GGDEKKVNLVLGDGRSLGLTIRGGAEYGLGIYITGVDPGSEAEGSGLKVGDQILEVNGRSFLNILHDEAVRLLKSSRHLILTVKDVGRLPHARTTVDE

Experiment [5] addresses T5, DFNB31_3, Q9P202.
T5 sequence (Q9P202 811-907, limits assumed, looked up): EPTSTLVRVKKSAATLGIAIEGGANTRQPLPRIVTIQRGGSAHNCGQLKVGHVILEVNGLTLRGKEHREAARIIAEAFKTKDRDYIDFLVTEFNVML

The target in experiment [6] is DLG1_2, Q12959.
DLG1_2, Q12959, sequence (Q12959 314-412): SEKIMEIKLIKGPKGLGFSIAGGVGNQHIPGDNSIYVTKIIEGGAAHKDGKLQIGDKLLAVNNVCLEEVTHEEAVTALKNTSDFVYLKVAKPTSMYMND
The target in experiment [7] is T6, DVL3, Q92997.
T6 sequence (Q92997 244-331, limits assumed, looked up): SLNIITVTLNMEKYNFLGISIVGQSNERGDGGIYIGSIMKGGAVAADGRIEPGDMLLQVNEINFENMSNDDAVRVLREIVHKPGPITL

Experiment [8] has as its target T7, FRMPD1, Q5SYB0.
T7 sequence (Q5SYB0 52-145, limits assumed, looked up): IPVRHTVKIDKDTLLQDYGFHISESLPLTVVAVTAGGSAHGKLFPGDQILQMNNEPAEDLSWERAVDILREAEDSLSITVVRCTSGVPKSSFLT

Experiment [9] deals with T8, GRIP1_5, Q9Y3R0.
T8 sequence (Q9Y3R0 568-668, limits assumed, looked up): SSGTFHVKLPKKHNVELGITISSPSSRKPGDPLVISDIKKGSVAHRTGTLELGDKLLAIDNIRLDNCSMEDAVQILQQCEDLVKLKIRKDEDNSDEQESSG

The target in experiment [10] is HTRA1, Q92743.
HTRA1, Q92743, sequence (Q92743 360-477): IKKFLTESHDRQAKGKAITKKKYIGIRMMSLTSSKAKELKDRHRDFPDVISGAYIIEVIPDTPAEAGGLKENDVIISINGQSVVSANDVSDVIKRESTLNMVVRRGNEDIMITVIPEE
Experiment [11] deals with T9, HTRA4, P83105.
T9 sequence (P83105 378-476, limits assumed, looked up): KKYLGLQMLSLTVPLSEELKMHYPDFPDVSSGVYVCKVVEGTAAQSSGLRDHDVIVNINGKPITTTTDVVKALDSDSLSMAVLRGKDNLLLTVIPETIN

In experiment [12] the target is LIMK2, P53671.
LIMK2, P53671, sequence (P53671 143-248): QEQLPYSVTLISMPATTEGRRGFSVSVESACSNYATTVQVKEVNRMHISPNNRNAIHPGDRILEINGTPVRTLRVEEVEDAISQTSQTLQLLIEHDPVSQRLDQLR
Experiment [13] has as its target T10, LIN7C, Q9NUP9.
T10 sequence (Q9NUP9 88-185, limits assumed, looked up): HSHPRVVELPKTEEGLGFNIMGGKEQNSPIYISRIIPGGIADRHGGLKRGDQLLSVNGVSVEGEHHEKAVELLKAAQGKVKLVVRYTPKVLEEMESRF

Experiment [14] has as its target MAGI2_2, Q86UL8.
Experiment [15] deals with MAGI2_3, Q86UL8.
MAGI2_3, Q86UL8, sequence (Q86UL8 600-682): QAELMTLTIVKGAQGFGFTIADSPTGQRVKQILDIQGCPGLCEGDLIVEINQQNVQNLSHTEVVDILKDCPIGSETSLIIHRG
Experiment [16] deals with NHERF4_4, Q86UT5.
NHERF4_4, Q86UT5, sequence (Q86UT5 464-550): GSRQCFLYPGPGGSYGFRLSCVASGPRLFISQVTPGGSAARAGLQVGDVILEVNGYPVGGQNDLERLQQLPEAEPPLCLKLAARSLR
Experiment [17] concerns the target PDZRN4_1, Q6ZMN7.
Experiment [18] has as its target T11, RAPGEF6, Q8TEU7.
T11 sequence (Q8TEU7 525-625, limits assumed, looked up): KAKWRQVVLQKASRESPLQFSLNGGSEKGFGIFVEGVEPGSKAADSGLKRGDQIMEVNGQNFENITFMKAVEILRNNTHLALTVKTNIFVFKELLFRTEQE

In experiment [19] the target is T12, SHANK1, Q9Y566.
T12 sequence (Q9Y566 658-767, limits assumed, looked up): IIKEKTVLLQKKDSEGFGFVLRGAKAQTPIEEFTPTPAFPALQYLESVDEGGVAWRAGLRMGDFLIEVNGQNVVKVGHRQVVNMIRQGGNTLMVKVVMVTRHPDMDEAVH

Experiment [20] has as its target T13, TIAM2, Q8IVF5.
T13 sequence (Q8IVF5 885-986, limits assumed, looked up): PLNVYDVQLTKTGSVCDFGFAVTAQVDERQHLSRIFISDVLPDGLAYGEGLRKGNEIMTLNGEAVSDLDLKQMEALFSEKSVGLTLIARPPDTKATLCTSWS

The target of experiment [21] is T14, TJP3_3, O95049.
T14 sequence (O95049 375-456, limits assumed, looked up): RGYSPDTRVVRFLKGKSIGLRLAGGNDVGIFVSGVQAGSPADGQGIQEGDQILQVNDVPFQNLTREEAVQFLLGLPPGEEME

Experiment [22] deals with T15, TX1BP3, O14907.
T15 sequence (O14907 10-122, limits assumed, looked up): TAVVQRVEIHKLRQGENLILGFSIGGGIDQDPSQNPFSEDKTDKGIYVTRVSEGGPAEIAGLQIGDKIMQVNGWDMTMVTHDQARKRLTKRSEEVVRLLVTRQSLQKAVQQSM

MAGI2_2, Q86UL8, sequence (Q86UL8 410-522): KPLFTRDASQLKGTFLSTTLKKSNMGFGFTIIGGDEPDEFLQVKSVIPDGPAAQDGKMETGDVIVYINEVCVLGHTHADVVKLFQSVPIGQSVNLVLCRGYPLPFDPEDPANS
PDZRN4_1, Q6ZMN7, sequence (Q6ZMN7 213-318): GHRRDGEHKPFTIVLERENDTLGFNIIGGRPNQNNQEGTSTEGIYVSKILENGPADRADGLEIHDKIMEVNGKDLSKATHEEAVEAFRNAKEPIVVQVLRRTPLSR

B1: KARS1, Q15046 (peptide)
chain: LESTTVGTSV
For B1, the pKd (usually −log10 of the Kd, conventionally taken in molar units) in experiment [1] is “below the threshold”; in [2], “below the threshold”; in experiment [3] it was 3.61; in experiment [4], “below the threshold”; in experiment [5] it was “below the threshold”; in experiment [6] it was 4.34. Further, the pKd result was “below the threshold” in experiment [7]; “below the threshold” in experiment [8]; “below the threshold” in experiment [9]; 3.95 in experiment [10]; “below the threshold” in experiment [11]; “below the threshold” in [12]. The pKd entry in experiment [13] was “below the threshold”; in experiment [14] it was “below the threshold”; in experiment [15], 3.73; in [16], “below the threshold”; in experiment [17] it was 4.29; in [18], “below the threshold”. For the same molecule, the pKd in experiment [19] was 3.71; in experiment [20], 4.05; in experiment [21], “below the threshold”; in experiment [22] it was 3.6.

B2: MARCHF3, Q86UD3 (peptide)
chain: VKRNSKETVV
On to B2, for which the pKd result in experiment [1] is “below the threshold”; in experiment [2] it was “below the threshold”; in experiment [3] it was 3.64; in [4], “below the threshold”; in experiment [5] it was 3.92; in experiment [6] it was 6.11. Also, the pKd entry in experiment [7] was “below the threshold”; in [8] it was “below the threshold”; in experiment [9], “below the threshold”; in [10], 4.35; in experiment [11], “below the threshold”; in experiment [12] it was “below the threshold”. The pKd in experiment [13] is 3.95; in experiment [14], 5.26; in experiment [15] it was 4.2; in experiment [16] it was “below the threshold”; in experiment [17], “below the threshold”; in [18] it was “below the threshold”. Further, the pKd result in experiment [19] was “below the threshold”; in [20], 3.73; in [21] it was “below the threshold”; in experiment [22], 4.16.

B3: ZSCAN30, Q86W11 (peptide)
chain: MQHQRTHTRV
Turning to B3, the pKd result is “below the threshold” in experiment [1]; “below the threshold” in experiment [2]; 3.81 in experiment [3]; “below the threshold” in experiment [4]; “below the threshold” in experiment [5]; 5.12 in [6]. In addition, the pKd result is “below the threshold” in [7]; “below the threshold” in experiment [8]; “below the threshold” in [9]; 3.99 in experiment [10]; “below the threshold” in [11]; “below the threshold” in [12]. Further, the negative logarithm of the Kd (pKd) entry in experiment [13] is “below the threshold”; in experiment [14] it was 5.42; in experiment [15], “below the threshold”; in [16] it was “below the threshold”; in experiment [17], “below the threshold”; in experiment [18] it was “below the threshold”. Also, the pKd in [19] was 4.08; in experiment [20] it was 3.89; in [21], “below the threshold”; in [22], 3.57.

B4: PRR16, Q569H4 (peptide)
chain: ILRKSTTTTV
Turning to B4, the negative-log Kd (pKd) result was “below the threshold” in experiment [1]; “below the threshold” in experiment [2]; “below the threshold” in experiment [3]; “below the threshold” in experiment [4]; “below the threshold” in experiment [5]; 5.43 in [6]. Also, the pKd entry in [7] is “below the threshold”; in [8], “below the threshold”; in experiment [9], “below the threshold”; in experiment [10] it was 4.06; in [11] it was 4.12; in experiment [12], “below the threshold”. The pKd entry in experiment [13] is “below the threshold”; in experiment [14] it was 5.2; in experiment [15], 3.74; in experiment [16] it was “below the threshold”; in experiment [17], “below the threshold”; in experiment [18], “below the threshold”. Also, the pKd result in [19] is “below the threshold”; in [20], “below the threshold”; in [21] it was “below the threshold”; in [22], 3.66.

B5: PTPRZ1, P23471 (peptide)
chain: NIAESLESLV
With B5, the pKd result was “below the threshold” in experiment [1]; “below the threshold” in [2]; 3.8 in [3]; “below the threshold” in experiment [4]; “below the threshold” in [5]; 5.31 in [6]. Moreover, the pKd entry in experiment [7] is “below the threshold”; in experiment [8], “below the threshold”; in experiment [9] it was “below the threshold”; in [10], 4.41; in experiment [11] it was “below the threshold”; in [12], “below the threshold”. For the same molecule, the pKd in experiment [13] was 4.08; in experiment [14] it was 4.28; in experiment [15] it was 4.44; in experiment [16], “below the threshold”; in [17] it was 3.99; in experiment [18], “below the threshold”. The pKd result in experiment [19] is “below the threshold”; in experiment [20], “below the threshold”; in experiment [21], “below the threshold”; in experiment [22] it was 4.26.
